The values that follow come from US20260028403A1 (Zymeworks, published 2026).

The target in experiment [1] is T1, Recombinant human/cynomolgus/rhesus macaque CD28 mouse IgG2a Fc fusion protein (Acro Biosystems) (human/cynomolgus/rhesus macaque, UniProt P10747 19-152).
T1 construct: bought; also called huCD28
Put plainly: SPR Biacore T200, CD28-mIgG2a Fc on CM5, construct injected, 1:1 model.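 Also: fc fusion captured by amine coupling, run at 25 °C in HEPES buffer pH 7.4, association 140-500 s then dissociation 600-1200 s, values averaged over three independent runs.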

Experiment [2] concerns the target T2, Recombinant human CD3 epsilon/delta heterodimer, his tag protein (Acro Biosystems) (human, UniProt P07766 23-126; P04234 22-105).
T2 construct: bought
Put plainly: SPR Biacore T200, CD3 e/d-his on CM5, construct injected, 1:1 model.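 Also: measured at 25 °C in HEPES-buffered saline with EDTA and Tween 20 at pH 7.4, values are means of three independent runs.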

A further experiment deals with T3, Human CLDN18.2 (human).
T3 construct: on transfected HEK293-6E cells or native on SNU 601 cells
Briefly: flow cytometry, SNU 601 cells.

Experiment [3] concerns the target T4, Recombinant MSLN his tag protein (R&D systems) (UniProt Q13421 296-580, limits assumed).
T4 construct: his tag; also called mesothelin
Put plainly: SPR Biacore T200, MSLN-his on CM5, construct flowed, 1:1 model.

B1: v37633 (trispecific antibody, human IgG1, lambda, L234A L235A)
heavy 1: not shown
heavy 2: QVQLVESGGGLVQPGGSLRLSCSVSGIDLSSNPMIWVRQAPGKGLQYIGIIDTDGSTYYADWAKGRFTISKDSTTVYLQINSPRAEDTAVYYCARRLHGSSNGYYDDLWGQGTLVTVSSGGGGSGGGGSGGGGSGGGGSDGQMTQSPSSVSASVGDRVTITCQASQSIYSYLSWYQQKPGQRPKLLIYKASTLASGVPSRFSGSGSGTDFTLTISSVQPEDFATYYCQQGYTVTNVDKNTFGGGTKVEIKAAEPKSSDKTHTCPPCPAPEAAGGPSVFLFPPKPKDTLMISRTPEVTCVVVSVSHEDPEVKFNWYVDGVEVHNAKTKPREEQYNSTYRVVSVLTVLHQDWLNGKEYKCKVSNKALPAPIEKTISKAKGQPREPQVYVLPPSRDELTKNQVSLLCLVKGFYPSDIAVEWESNGQPENNYLTWPPVLDSDGSFFLYSKLTVDKSRWQQGNVFSCSVMHEALHNHYTQKSLSLSPG
light: NFMLTQPHSVSESPGKTVTISCKRNTGNIGSNYVNWYQQHEGSSPTTIIYRNDKRPDGVSDRFSGSIDRSSKSASLTISNLKTEDEADYFCQSYSSGFIFGGGTKLTVLGQPKAAPSVTLFPPSSEELQANKATLVCLISDFYPGAVTVAWKADSSPVKAGVETTTPSKQSNNKYAASSYLSLTPEQWKSHRSYSCQVTHEGSTVEKTVAPTECS
notes: Het Fc, FcKO; also called CD28xCD3xCldn18.2 trispecific
As for B1, in experiment [1], the Kd was determined as 55.1 nM, the koff turned out to be 0.0062 s⁻¹ and the kon was 113000 M⁻¹ s⁻¹. Also, in experiment [2], the Kd is 135 nM, the koff came to 0.0176 s⁻¹ and the kon was 130000 M⁻¹ s⁻¹. In the experiment with Human CLDN18.2, this molecule returned a Bmax of 8570 MFI and an EC50 of 40.8 nM.

B2: v37663 (bispecific antibody, human IgG1, lambda, L234A L235A)
heavy 1: not shown
heavy 2: QVQLVESGGGLVQPGGSLRLSCSVSGIDLSSNPMIWVRQAPGKGLQYIGIIDTDGSTYYADWAKGRFTISKDSTTVYLQINSPRAEDTAVYYCARRLHGSSNGYYDDLWGQGTLVTVSSGGGGSGGGGSGGGGSGGGGSDGQMTQSPSSVSASVGDRVTITCQASQSIYSYLSWYQQKPGQRPKLLIYKASTLASGVPSRFSGSGSGTDFTLTISSVQPEDFATYYCQQGYTVTNVDKNTFGGGTKVEIKAAEPKSSDKTHTCPPCPAPEAAGGPSVFLFPPKPKDTLMISRTPEVTCVVVSVSHEDPEVKFNWYVDGVEVHNAKTKPREEQYNSTYRVVSVLTVLHQDWLNGKEYKCKVSNKALPAPIEKTISKAKGQPREPQVYVLPPSRDELTKNQVSLLCLVKGFYPSDIAVEWESNGQPENNYLTWPPVLDSDGSFFLYSKLTVDKSRWQQGNVFSCSVMHEALHNHYTQKSLSLSPG
light: NFMLTQPHSVSESPGKTVTISCKRNTGNIGSNYVNWYQQHEGSSPTTIIYRNDKRPDGVSDRFSGSIDRSSKSASLTISNLKTEDEADYFCQSYSSGFIFGGGTKLTVLGQPKAAPSVTLFPPSSEELQANKATLVCLISDFYPGAVTVAWKADSSPVKAGVETTTPSKQSNNKYAASSYLSLTPEQWKSHRSYSCQVTHEGSTVEKTVAPTECS
notes: 13B08 VH-VL scFv); also called anti-(CLDN18.2xCD3) bispecific control
In the case of B2, in experiment [2], the Kd was determined as 76.4 nM, the koff worked out at 0.0157 s⁻¹ and the kon came to 206000 M⁻¹ s⁻¹. In addition, in the experiment with Human CLDN18.2, the Bmax came to 9200 MFI and the response was half-maximal at 31.3 nM (EC50).

B3: v34916 (trispecific antibody, human IgG1, lambda, L234A L235A)
heavy 1: not shown
heavy 2: EIVLTQSPATLSLSPGERVTMSCSASSSVSYMHWYQQKPGQAPRLWIYDTSKLASGVPARFSGSGSGTDYTLTISSVEPEDNAVYYCQQWSGHPLTFGQGTKVEIKGGGGSGGGGSGGGGSGGGGSQVQLVQSGAEVKKPGASVKISCKASGYSFTGYTMNWVRQAPGQGLEWIGLITPYSGASSYAQKFQGRATLTVDKSTSTAYMELSSLRSEDTAVYYCARGGYDGRGFDYWGQGTNVTVSSAAEPKSSDKTHTCPPCPAPEAAGGPSVFLFPPKPKDTLMISRTPEVTCVVVSVSHEDPEVKFNWYVDGVEVHNAKTKPREEQYNSTYRVVSVLTVLHQDWLNGKEYKCKVSNKALPAPIEKTISKAKGQPREPQVYVLPPSRDELTKNQVSLLCLVKGFYPSDIAVEWESNGQPENNYLTWPPVLDSDGSFFLYSKLTVDKSRWQQGNVFSCSVMHEALHNHYTQKSLSLSPG
light: NFMLTQPHSVSESPGKTVTISCKRNTGNIGSNYVNWYQQHEGSSPTTIIYRNDKRPDGVSDRFSGSIDRSSKSASLTISNLKTEDEADYFCQSYSSGFIFGGGTKLTVLGQPKAAPSVTLFPPSSEELQANKATLVCLISDFYPGAVTVAWKADSSPVKAGVETTTPSKQSNNKYAASSYLSLTPEQWKSHRSYSCQVTHEGSTVEKTVAPTECSGGGGSGDIQMTQSPSSLSASVGDRVTITCRASESVEYYVTSLMQWYQQKPGKAPKLLIYAASNVDSGVPSRFSGSGSGTDFTLTISSLQPEDIATYYCQQSRKVPFTFGGGTKVEIKGGGGSGGGGSGGGGSGGGGSQVQLQESGPGLVKPSETLSLTCAVSGFSLTSYGVHWIRQPPGKGLEWLGVIWPGGGTNFNSALMSRLTISEDTSKNQVSLKLSSVTAADTAVYYCARDRAYGNYLYAMDYWGQGTLVTVSS
notes: CD28 scFv on C-terminus of the CD3 Fab light chain; Het Fc, FcKO; also called CD3xCD28xMSLN trispecific
Turning to B3, in experiment [1], the Kd is 56.5 nM, the koff was determined as 0.000546 s⁻¹ and the kon turned out to be 13000 M⁻¹ s⁻¹. In experiment [2], the Kd was found to be 37.2 nM, the off-rate constant (koff) stood at 0.0104 s⁻¹ and the kon stood at 291000 M⁻¹ s⁻¹. Further, in experiment [3], the Kd was 4.78 nM, the koff stood at 0.00181 s⁻¹ and the kon worked out at 388000 M⁻¹ s⁻¹.

B4: v34918 (trispecific antibody, human IgG1, kappa, L234A L235A)
heavy 1: QVQLQESGPGLVKPSETLSLTCAVSGFSLTSYGVHWIRQPPGKGLEWLGVIWPGGGTNFNSALMSRLTISEDTSKNQVSLKLSSVTAADTAVYYCARDRAYGNYLYAMDYWGQGTLVTVSSASTKGPSVFPLAPSSKSTSGGTAALGCLVKDYFPEPVTVSWNSGALTSGVHTFPAVLQSSGLYSLSSVVTVPSSSLGTQTYICNVNHKPSNTKVDKKVEPKSCDKTHTCPPCPAPEAAGGPSVFLFPPKPKDTLMISRTPEVTCVVVSVSHEDPEVKFNWYVDGVEVHNAKTKPREEQYNSTYRVVSVLTVLHQDWLNGKEYKCKVSNKALPAPIEKTISKAKGQPREPQVYVYPPSRDELTKNQVSLTCLVKGFYPSDIAVEWESNGQPENNYKTTPPVLDSDGSFALVSKLTVDKSRWQQGNVFSCSVMHEALHNHYTQKSLSLSPGGGGGSGNFMLTQPHSVSESPGKTVTISCKRNTGNIGSNYVNWYQQHEGSSPTTIIYRNDKRPDGVSDRFSGSIDRSSKSASLTISNLKTEDEADYFCQSYSSGFIFGGGTKLTVLGGGGSGGGGSGGGGSGGGGSEVQLVESGGGLVQPGGSLRLSCAASGVTFNYYGMSWIRQAPGKGLEWVASITSSGGRIYYPDSVKGRFTISRENTQKTLYLQMNSLRAEDTAVYYCTLDGRDGWVAYWGQGTLVTVSS
heavy 2: EIVLTQSPATLSLSPGERVTMSCSASSSVSYMHWYQQKPGQAPRLWIYDTSKLASGVPARFSGSGSGTDYTLTISSVEPEDNAVYYCQQWSGHPLTFGQGTKVEIKGGGGSGGGGSGGGGSGGGGSQVQLVQSGAEVKKPGASVKISCKASGYSFTGYTMNWVRQAPGQGLEWIGLITPYSGASSYAQKFQGRATLTVDKSTSTAYMELSSLRSEDTAVYYCARGGYDGRGFDYWGQGTNVTVSSAAEPKSSDKTHTCPPCPAPEAAGGPSVFLFPPKPKDTLMISRTPEVTCVVVSVSHEDPEVKFNWYVDGVEVHNAKTKPREEQYNSTYRVVSVLTVLHQDWLNGKEYKCKVSNKALPAPIEKTISKAKGQPREPQVYVLPPSRDELTKNQVSLLCLVKGFYPSDIAVEWESNGQPENNYLTWPPVLDSDGSFFLYSKLTVDKSRWQQGNVFSCSVMHEALHNHYTQKSLSLSPG
light: DIQMTQSPSSLSASVGDRVTITCRASESVEYYVTSLMQWYQQKPGKAPKLLIYAASNVDSGVPSRFSGSGSGTDFTLTISSLQPEDIATYYCQQSRKVPFTFGGGTKVEIKRTVAAPSVFIFPPSDEQLKSGTASVVCLLNNFYPREAKVQWKVDNALQSGNSQESVTEQDSKDSTYSLSSTLTLSKADYEKHKVYACEVTHQGLSSPVTKSFNRGEC
notes: Het Fc, FcKO; also called CD28xCD3xMSLN trispecific
In the case of B4, in experiment [1], the Kd worked out at 50 nM, the dissociation rate constant (koff) turned out to be 0.00259 s⁻¹ and the kon is 52700 M⁻¹ s⁻¹. Also, in experiment [2], the Kd came out at 118 nM, the koff was 0.0135 s⁻¹ and the kon was 118000 M⁻¹ s⁻¹. In experiment [3], the dissociation constant Kd stood at 7.08 nM, the koff stood at 0.00187 s⁻¹ and the kon was determined as 294000 M⁻¹ s⁻¹.

B5: v34917 (trispecific antibody, human IgG1, lambda, L234A L235A)
heavy 1: EVQLVESGGGLVQPGGSLRLSCAASGVTFNYYGMSWIRQAPGKGLEWVASITSSGGRIYYPDSVKGRFTISRENTQKTLYLQMNSLRAEDTAVYYCTLDGRDGWVAYWGQGTLVTVSSASTKGPSVFPLAPSSKSTSGGTAALGCLVKDYFPEPVTVSWNSGALTSGVHTFPAVLQSSGLYSLSSVVTVPSSSLGTQTYICNVNHKPSNTKVDKKVEPKSCDKTHTCPPCPAPEAAGGPSVFLFPPKPKDTLMISRTPEVTCVVVSVSHEDPEVKFNWYVDGVEVHNAKTKPREEQYNSTYRVVSVLTVLHQDWLNGKEYKCKVSNKALPAPIEKTISKAKGQPREPQVYVYPPSRDELTKNQVSLTCLVKGFYPSDIAVEWESNGQPENNYKTTPPVLDSDGSFALVSKLTVDKSRWQQGNVFSCSVMHEALHNHYTQKSLSLSPGGGGGSGDIQMTQSPSSLSASVGDRVTITCRASESVEYYVTSLMQWYQQKPGKAPKLLIYAASNVDSGVPSRFSGSGSGTDFTLTISSLQPEDIATYYCQQSRKVPFTFGGGTKVEIKGGGGSGGGGSGGGGSGGGGSQVQLQESGPGLVKPSETLSLTCAVSGFSLTSYGVHWIRQPPGKGLEWLGVIWPGGGTNFNSALMSRLTISEDTSKNQVSLKLSSVTAADTAVYYCARDRAYGNYLYAMDYWGQGTLVTVSS
heavy 2: EIVLTQSPATLSLSPGERVTMSCSASSSVSYMHWYQQKPGQAPRLWIYDTSKLASGVPARFSGSGSGTDYTLTISSVEPEDNAVYYCQQWSGHPLTFGQGTKVEIKGGGGSGGGGSGGGGSGGGGSQVQLVQSGAEVKKPGASVKISCKASGYSFTGYTMNWVRQAPGQGLEWIGLITPYSGASSYAQKFQGRATLTVDKSTSTAYMELSSLRSEDTAVYYCARGGYDGRGFDYWGQGTNVTVSSAAEPKSSDKTHTCPPCPAPEAAGGPSVFLFPPKPKDTLMISRTPEVTCVVVSVSHEDPEVKFNWYVDGVEVHNAKTKPREEQYNSTYRVVSVLTVLHQDWLNGKEYKCKVSNKALPAPIEKTISKAKGQPREPQVYVLPPSRDELTKNQVSLLCLVKGFYPSDIAVEWESNGQPENNYLTWPPVLDSDGSFFLYSKLTVDKSRWQQGNVFSCSVMHEALHNHYTQKSLSLSPG
light: NFMLTQPHSVSESPGKTVTISCKRNTGNIGSNYVNWYQQHEGSSPTTIIYRNDKRPDGVSDRFSGSIDRSSKSASLTISNLKTEDEADYFCQSYSSGFIFGGGTKLTVLGQPKAAPSVTLFPPSSEELQANKATLVCLISDFYPGAVTVAWKADSSPVKAGVETTTPSKQSNNKYAASSYLSLTPEQWKSHRSYSCQVTHEGSTVEKTVAPTECS
notes: as for B4
Turning to B5, in experiment [1], the Kd stood at 373 nM, the koff came out at 0.00209 s⁻¹ and the kon turned out to be 8240 M⁻¹ s⁻¹. In experiment [2], the Kd came to 40.8 nM, the koff is 0.0177 s⁻¹ and the kon was found to be 444000 M⁻¹ s⁻¹. Moreover, in experiment [3], the Kd was 4.96 nM, the koff came out at 0.00199 s⁻¹ and the kon worked out at 411000 M⁻¹ s⁻¹.
